Here are results for three molecules from publication doi:10.1101/2022.12.30.522300 (bioRxiv, 2022).

A word on the Kd: it is the concentration at which binding is half-saturated. The low end stands for tighter binding, the high end for weaker binding.

The target of test [1] is RBM17–UHM (RBM17/ΔNΔG), from pETM11 (human). Nature of the test: ITC. In general terms: Isothermal titration calorimetry measures the heat released or taken up as one component is titrated into another.
Test [2] deals with T1, full-length RBM17, from pETM11 (human, UniProt Q96I25 1-401).
T1 sequence (looked up): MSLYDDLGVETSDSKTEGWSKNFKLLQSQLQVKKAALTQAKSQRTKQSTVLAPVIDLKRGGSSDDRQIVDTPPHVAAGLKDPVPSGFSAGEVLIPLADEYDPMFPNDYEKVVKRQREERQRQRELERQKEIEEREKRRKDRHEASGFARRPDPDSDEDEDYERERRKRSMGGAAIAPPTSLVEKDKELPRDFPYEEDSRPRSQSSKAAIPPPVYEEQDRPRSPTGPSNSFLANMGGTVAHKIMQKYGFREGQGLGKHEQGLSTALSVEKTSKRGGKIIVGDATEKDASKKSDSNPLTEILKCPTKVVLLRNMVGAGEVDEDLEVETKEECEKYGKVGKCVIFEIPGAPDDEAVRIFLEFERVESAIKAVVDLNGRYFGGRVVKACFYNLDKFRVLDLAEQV
Nature of the test: NMR titration.

Another test concerns the target T2, GST-RBM17 (human, UniProt Q96I25 1-401).
T2 sequence (looked up): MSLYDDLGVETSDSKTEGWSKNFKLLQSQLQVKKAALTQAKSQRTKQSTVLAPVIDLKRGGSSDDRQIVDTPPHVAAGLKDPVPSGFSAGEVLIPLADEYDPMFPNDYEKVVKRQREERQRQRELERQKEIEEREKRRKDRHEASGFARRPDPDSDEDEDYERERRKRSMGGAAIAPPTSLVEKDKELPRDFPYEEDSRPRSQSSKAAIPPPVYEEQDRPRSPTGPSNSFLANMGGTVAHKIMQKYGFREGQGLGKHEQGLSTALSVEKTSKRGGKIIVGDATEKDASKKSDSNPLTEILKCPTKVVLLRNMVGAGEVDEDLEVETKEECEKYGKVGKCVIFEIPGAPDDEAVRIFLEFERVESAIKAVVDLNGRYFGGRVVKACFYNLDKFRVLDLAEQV
Nature of the test: pull-down.

Turning to SAP30BP/ULM (domain or fragment), in test [1], the equilibrium dissociation constant (Kd) turned out to be 34.4 µM.

B1: full-length SAP30BP, from pETM11 (natural protein, human, UniProt Q9UHR5 1-308, looked up)
chain: MAGKKNVLSSLAVYAEDSEPESDGEAGIEAVGSAAEEKGGLVSDAYGEDDFSRLGGDEDGYEEEEDENSRQSEDDDSETEKPEADDPKDNTEAEKRDPQELVASFSERVRNMSPDEIKIPPEPPGRCSNHLQDKIQKLYERKIKEGMDMNYIIQRKKEFRNPSIYEKLIQFCAIDELGTNYPKDMFDPHGWSEDSYYEALAKAQKIEMDKLEKAKKERTKIEFVTGTKKGTTTNATSTTTTTASTAVADAQKRKSKWDSAIPVTTIAQPTILTTTATLPAVVTVTTSASGSKTTVISAVGTIVKKAKQ
For B1, the binding result in test [2] is reported as “binds”.

B2: recombinant SAP30BP (GST tag removed) (natural protein, human, UniProt Q9UHR5 1-308, looked up)
chain: MAGKKNVLSSLAVYAEDSEPESDGEAGIEAVGSAAEEKGGLVSDAYGEDDFSRLGGDEDGYEEEEDENSRQSEDDDSETEKPEADDPKDNTEAEKRDPQELVASFSERVRNMSPDEIKIPPEPPGRCSNHLQDKIQKLYERKIKEGMDMNYIIQRKKEFRNPSIYEKLIQFCAIDELGTNYPKDMFDPHGWSEDSYYEALAKAQKIEMDKLEKAKKERTKIEFVTGTKKGTTTNATSTTTTTASTAVADAQKRKSKWDSAIPVTTIAQPTILTTTATLPAVVTVTTSASGSKTTVISAVGTIVKKAKQ
For B2, the binding result in the test with GST-RBM17 is on record as “binds”.
